Results from patent US20250353912A1 (published 2025).
Substitutions are numbered along the chain they refer to. Each block holds one binder with its values, some of them ahead of it. Where no end group is shown, it is not given here. [ ]: non-standard residue; d: D form.

Experiments:
[1] = target: HLA-A*01:01 in complex with the BTK peptide … conjugated with Ibrutinib (human;, ibrutinib covalently bound to Cys); assay: multiplex bead-binding assay
RAS-AMG510 = assay: cell binding, flow cytometry (peptide-pulsed Raji cells); apparent KD
[2] = target: T1, KRAS(G12C) residues 4-18 peptide conjugated to AMG-510; assay: bead binding assay; apparent KD
T1 peptide: YKLVVVGAC(AMG‑510)GVGKSA[dPEG4]K(long chain biotin)-NH2

CD3 on Jurkat cells = CD3 on Jurkat cells (UniProt P07766 23-207); assay: cell binding, flow cytometry

B1: IBA1-8 (antibody, V domains shown)
VH: EVQLVESGGGLVQPGGSLRLSCAASGFTISYSSIHWVRQAPGKGLEWVASIYPSYGSTSYADSVKGRFTISADTSKNTAYLQMNSLRAEDTAVYYCARWQGYYQPALDYWGQGTLVTVSS
VL: DIQMTQSPSSLSASVGDRVTITCRASQSVSSAVAWYQQKPGKAPKLLIYSASSLYSGVPSRFSGSRSGTDFTLTISSLQPEDFATYYCQQPYYPLITFGQGTKVEIKR
Kd [1]: 62 nM

B2: AMRA311-16 hIgG1 (antibody, V domains shown)
VH: EVQLVESGGGLVQPGGSLRLSCAASGFTISSSSIHWVRQAPGKGLEWVAYISSYSGYTYYADSVKGRFTISADTSKNTAYLQMNSLRAEDTAVYYCARYWYGHYHSYFGLDYWGQGTLVTVSS
VL: B1 VL with P91S, Y92S, Y93S, P94S
Kd (RAS-AMG510): 71 nM

B3: AMRA311-17 hIgG1 (antibody, V domains shown)
VH: EVQLVESGGGLVQPGGSLRLSCAASGFTISSSSIHWVRQAPGKGLEWVASISSYSGSTYYADSVKGRFTISADTSKNTAYLQMNSLRAEDTAVYYCARYPYGSHVYTGLDYWGQGTLVTVSS
VL: B1 VL with P91S, Y92S, Y93S, P94S
Kd (RAS-AMG510): 180 nM

B4: P2AMR-1 in the human IgG1 format (antibody, V domains shown)
VH: QVQLVQSEPEVKKPGSSVKLSCKASGGTFSTDAITWVRQAPGQGLEYMGGIIPLLDSVDYAQRFQGRVTVSADKSTGTAYMEVRSLGSEDTAKYYCAKWSSVDTGLDYWGQGTLVTVSS
VL: QSVLIQPRSVSGSPGQSVTISCTGTSSDVGGYNYVSWYQQHPGKAPKLMIYDVSKRPSGVPDRFSGSKSGNTASLTVSGLQAEDEADYYCGSYADTDTIVFGTGTKLTVL
Kd [2]: 0.2 nM

B6: IBA1-7 (antibody, V domains shown)
VH: EVQLVESGGGLVQPGGSLRLSCAASGFTLSSSSIHWVRQAPGKGLEWVASISSYYGSTSYADSVKGRFTISADTSKNTAYLQMNSLRAEDTAVYYCARMHYSWQEYYSYDWGMDYWGQGTLVTVSS
VL: DIQMTQSPSSLSASVGDRVTITCRASQSVSSAVAWYQQKPGKAPKLLIYSASSLYSGVPSRFSGSRSGTDFTLTISSLQPEDFATYYCQQSYWWKSLVTFGQGTKVEIKR
Kd [1]: 170 nM

B7: IBA1-4 (antibody, V domains shown)
VH: EVQLVESGGGLVQPGGSLRLSCAASGFTVSSSSIHWVRQAPGKGLEWVASIYSYSGSTYYADSVKGRFTISADTSKNTAYLQMNSLRAEDTAVYYCARQYSSSYYVWPGMDYWGQGTLVTVSS
VL: B6 VL with S91Y, Y92H, W93Y, K95A, V98I
Kd [1]: 0.65 nM

B8: AMRA311-18 hIgG1 (antibody, V domains shown)
VH: EVQLVESGGGLVQPGGSLRLSCAASGFTISSSSIHWVRQAPGKGLEWVASIYSSSGSTSYADSVKGRFTISADTSKNTAYLQMNSLRAEDTAVYYCARVYSSRYWGWGVAFDYWGQGTLVTVSS
VL: B6 VL with S91W, Y92N, W94A, K95D, S96Y
Kd (RAS-AMG510): 52 nM

B10: AMRA3-7D_CrossMab (bispecific antibody)
chain: EVQLLESGGGLVQPGGSLRLSCAASGFTFSTYAMNWVRQAPGKGLEWVSRIRSKYNNYATYYADSVKGRFTISRDDSKNTLYLQMNSLRAEDTAVYYCVRHGNFGNSYVSWFAYWGQGTLVTVSSASVAAPSVFIFPPSDEQLKSGTASVVCLLNNFYPREAKVQWKVDNALQSGNSQESVTEQDSKDSTYSLSSTLTLSKADYEKHKVYACEVTHQGLSSPVTKSFNRGEC
heavy 1: not shown
heavy 2: EVQLVESGGGLVQPGGSLRLSCAASGFTFSDYSIHWVRQAPGKGLEWVASISSSSGSTSYADSVKGRFTISADTSKNTAYLQMNSLRAEDTAVYYCARGGWYPAMDYWGQGTLVTVSSASTKGPSVFPLAPSSKSTSGGTAALGCLVEDYFPEPVTVSWNSGALTSGVHTFPAVLQSSGLYSLSSVVTVPSSSLGTQTYICNVNHKPSNTKVDEKVEPKSCDKTHTCPPCPAPEAAGGPSVFLFPPKPKDTLMISRTPEVTCVVVDVSHEDPEVKFNWYVDGVEVHNAKTKPREEQYNSTYRVVSVLTVLHQDWLNGKEYKCKVSNKALGAPIEKTISKAKGQPREPQVCTLPPSRDELTKNQVSLSCAVKGFYPSDIAVEWESNGQPENNYKTTPPVLDSDGSFFLVSKLTVDKSRWQQGNVFSCSVMHEALHNHYTQKSLSLSP
light: DIQMTQSPSSLSASVGDRVTITCRASQSVSSAVAWYQQKPGKAPKLLIYSASSLYSGVPSRFSGSRSGTDFTLTISSLQPEDFATYYCQQISYVKKLITFGQGTKVEIKRTVAAPSVFIFPPSDRKLKSGTASVVCLLNNFYPREAKVQWKVDNALQSGNSQESVTEQDSKDSTYSLSSTLTLSKADYEKHKVYACEVTHQGLSSPVTKSFNRGEC
Kd (CD3 on Jurkat cells): 200 nM

More lines, now with the values ahead:

Kd [1]: 0.04 nM
B5: IBA1-21 (antibody, V domains shown)
VH: EVQLVESGGGLVQPGGSLRLSCAASGFTISSSSIHWVRQAPGKGLEWVASISSYYGYTSYADSVKGRFTISADTSKNTAYLQMNSLRAEDTAVYYCARYYSYSSGYGYYDYFDWGAMDYWGQGTLVTVSS
VL: B6 VL with S91M, Y92Q, W93Y, W94S, K95G, S96W, V98I

Kd [1]: 0.52 nM
B9: IBA1-19 (antibody, V domains shown)
VH: EVQLVESGGGLVQPGGSLRLSCAASGFTFSYSSIHWVRQAPGKGLEWVASIYPSSGYTSYADSVKGRFTISADTSKNTAYLQMNSLRAEDTAVYYCARGWWYWMAWDYAMDYWGQGTLVTVSS
VL: B6 VL with Y92W, W93M, W94S, K95D, V98I

Kd [1]: 0.137 nM
B11: IBA1-13 (antibody, V domains shown)
VH: EVQLVESGGGLVQPGGSLRLSCAASGFTLSSSSIHWVRQAPGKGLEWVASIYSSYGYTYYADSVKGRFTISADTSKNTAYLQMNSLRAEDTAVYYCARYYYYWYGGMDYWGQGTLVTVSS
VL: DIQMTQSPSSLSASVGDRVTITCRASQSVSSAVAWYQQKPGKAPKLLIYSASSLYSGVPSRFSGSRSGTDFTLTISSLQPEDFATYYCQQGHDMNPVTFGQGTKVEIKR
